Source: patent publication US20250388669A1 (published 2025)

T1: CD19 (UniProt P15391 20-556, limits assumed)
T1 construct: whole, on cells
T1 sequence (looked up): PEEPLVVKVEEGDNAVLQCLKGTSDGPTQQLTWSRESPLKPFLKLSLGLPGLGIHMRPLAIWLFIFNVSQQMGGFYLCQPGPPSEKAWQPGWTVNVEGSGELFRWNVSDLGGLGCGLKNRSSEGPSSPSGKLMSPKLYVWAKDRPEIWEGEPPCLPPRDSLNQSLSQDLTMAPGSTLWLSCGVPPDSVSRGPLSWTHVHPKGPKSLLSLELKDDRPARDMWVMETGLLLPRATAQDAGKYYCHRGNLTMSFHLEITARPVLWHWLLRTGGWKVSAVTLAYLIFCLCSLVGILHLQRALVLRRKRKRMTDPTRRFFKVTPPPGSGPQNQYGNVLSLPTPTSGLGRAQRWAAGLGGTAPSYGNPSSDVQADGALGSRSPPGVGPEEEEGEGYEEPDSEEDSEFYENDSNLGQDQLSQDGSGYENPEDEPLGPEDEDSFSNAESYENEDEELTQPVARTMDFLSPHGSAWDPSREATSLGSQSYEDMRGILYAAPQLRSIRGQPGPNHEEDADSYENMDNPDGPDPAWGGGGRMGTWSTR

B1: Ly2326 (bispecific antibody, human IgG1, kappa)
chain 1: QVQLQQSGAELVRPGSSVKISCKASGYAFSSYWMNWVKQRPGQGLEWIGQIWPGDGDTNYNGKFKGKATLTADESSSTAYMQLSSLASEDSAVYFCARRETTTVGRYYYAMDYWGQGTTVTVSSASTKGPSVFPLAPSSKSTSGGTAALGCLVKDYFPEPVTVSWNSGALTSGVHTFPAVLQSSGLYSLSSVVTVPSSSLGTQTYICNVNHKPSNTKVDKKVEPKSCDKTHTCPPCPAPEAAGPSVFLFPPKPKDTLMISRTPEVTCVVVDVSHEDPEVKFNWYVDGVEVHNAKTKPREEQYNSTYRVVSVLTVLHQDWLNGKEYKCKVSNKALPAPIEKTISKAKGQPREPQVYTLPPSREEMTKNQVSLWCLVKGFYPSDIAVEWESNGQPENNYKTTPPVLDSDGSFFLYSKLTVDKSRWQQGNVFSCSVMHEALHNHYTQKSLSLSPGGGGGSGGGGSGGGGSGGGGSQVQLVQSGAEVKKPGASVKVSCKASGYTFAGFEMHWVRQAPGQGLEWMGAIDPKTGGTDYNQKFKDRVTMTRDTSISTAYMELSRLRSDDTAVYYCARDLGYFDVWGQGTLVTVSS
chain 2: QVQLQQSGAELVRPGSSVKISCKASGYAFSSYWMNWVKQRPGQGLEWIGQIWPGDGDTNYNGKFKGKATLTADESSSTAYMQLSSLASEDSAVYFCARRETTTVGRYYYAMDYWGQGTTVTVSSASTKGPSVFPLAPSSKSTSGGTAALGCLVKDYFPEPVTVSWNSGALTSGVHTFPAVLQSSGLYSLSSVVTVPSSSLGTQTYICNVNHKPSNTKVDKKVEPKSCDKTHTCPPCPAPEAAGPSVFLFPPKPKDTLMISRTPEVTCVVVDVSHEDPEVKFNWYVDGVEVHNAKTKPREEQYNSTYRVVSVLTVLHQDWLNGKEYKCKVSNKALPAPIEKTISKAKGQPREPQVYTLPPSREEMTKNQVSLSCAVKGFYPSDIAVEWESNGQPENNYKTTPPVLDSDGSFFLVSKLTVDKSRWQQGNVFSCSVMHEALHNRFTQKSLSLSPGGGGGSGGGGSGGGGSGGGGSDIQMTQSPSSLSASVGDRVTITCRASQDIRSNLNWYQQKPGGAVKLLIYYTSRLHSGVPSRFSGSGSGTDYTLTISSLQPEDFATYFCQQSEKLPRTFGGGTKVEIR
light: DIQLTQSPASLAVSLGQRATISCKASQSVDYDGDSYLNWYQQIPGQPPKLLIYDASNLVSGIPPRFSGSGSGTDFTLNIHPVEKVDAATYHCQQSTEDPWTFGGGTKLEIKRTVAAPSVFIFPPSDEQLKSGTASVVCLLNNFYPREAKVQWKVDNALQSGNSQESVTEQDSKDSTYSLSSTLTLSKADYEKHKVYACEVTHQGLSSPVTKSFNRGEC
notes: Bispecific CD19 (two Fabs) / CD137 (terminal Fv)
B2: Ly1966 (other)
chain 1: QVQLQQSGAELVRPGSSVKISCKASGYAFSSYWMNWVKQRPGQGLEWIGQIWPGDGDTNYNGKFKGKATLTADESSSTAYMQLSSLASEDSAVYFCARRETTTVGRYYYAMDYWGQGTTVTVSSASTKGPSVFPLAPSSKSTSGGTAALGCLVKDYFPEPVTVSWNSGALTSGVHTFPAVLQSSGLYSLSSVVTVPSSSLGTQTYICNVNHKPSNTKVDKKVEPKSCGGGGSGGGGSGGGGSGGGGSEVQLVESGGGLVQPGGSLRLSCAASGFTFSTYAMNWVRQAPGKGLEWVGRIRSKYNNYATYYADSVKGRFTISRDDSKNSLYLQMNSLKTEDTAVYYCVRHGNFGNSYVSWFAYWGQGTLVTVSSGGGGSDKTHTCPPCPAPEAAGPSVFLFPPKPKDTLMISRTPEVTCVVVDVSHEDPEVKFNWYVDGVEVHNAKTKPREEQYNSTYRVVSVLTVLHQDWLNGKEYKCKVSNKALPAPIEKTISKAKGQPREPQVYTLPPSREEMTKNQVSLWCLVKGFYPSDIAVEWESNGQPENNYKTTPPVLDSDGSFFLYSKLTVDKSRWQQGNVFSCSVMHEALHNHYTQKSLSLSPGGGGGSGGGGSGGGGSGGGGSQVQLVQSGAEVKKPGASVKVSCKASGYTFAGFEMHWVRQAPGQGLEWMGAIDPKTGGTDYNQKFKDRVTMTRDTSISTAYMELSRLRSDDTAVYYCARDLGYFDVWGQGTLVTVSS
chain 2: QVQLQQSGAELVRPGSSVKISCKASGYAFSSYWMNWVKQRPGQGLEWIGQIWPGDGDTNYNGKFKGKATLTADESSSTAYMQLSSLASEDSAVYFCARRETTTVGRYYYAMDYWGQGTTVTVSSASTKGPSVFPLAPSSKSTSGGTAALGCLVKDYFPEPVTVSWNSGALTSGVHTFPAVLQSSGLYSLSSVVTVPSSSLGTQTYICNVNHKPSNTKVDKKVEPKSCGGGGSGGGGSGGGGSGGGGSQAVVTQEPSLTVSPGGTVTLTCRSSTGAVTTSNYANWVQQKPGQAPRGLIGGTNKRAPWTPARFSGSLLGGKAALTITGAQAEDEADYYCALWYSNLWVFGGGTKLTVLGGGGSDKTHTCPPCPAPEAAGPSVFLFPPKPKDTLMISRTPEVTCVVVDVSHEDPEVKFNWYVDGVEVHNAKTKPREEQYNSTYRVVSVLTVLHQDWLNGKEYKCKVSNKALPAPIEKTISKAKGQPREPQVYTLPPSREEMTKNQVSLSCAVKGFYPSDIAVEWESNGQPENNYKTTPPVLDSDGSFFLVSKLTVDKSRWQQGNVFSCSVMHEALHNRFTQKSLSLSPGGGGGSGGGGSGGGGSGGGGSDIQMTQSPSSLSASVGDRVTITCRASQDIRSNLNWYQQKPGGAVKLLIYYTSRLHSGVPSRFSGSGSGTDYTLTISSLQPEDFATYFCQQSEKLPRTFGGGTKVEIR
light: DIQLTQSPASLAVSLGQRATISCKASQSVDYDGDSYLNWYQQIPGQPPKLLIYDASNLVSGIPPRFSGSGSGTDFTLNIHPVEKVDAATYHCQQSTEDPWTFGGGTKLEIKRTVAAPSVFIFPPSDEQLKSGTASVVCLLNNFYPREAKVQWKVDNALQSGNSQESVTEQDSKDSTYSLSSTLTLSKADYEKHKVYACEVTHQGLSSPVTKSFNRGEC
notes: Tri-specific antibody CD19 (two Fabs) / CD3 (central Fv) / CD137 (terminal Fv)
B3: Ly1967 (other)
chain 1: QVQLQQSGAELVRPGSSVKISCKASGYAFSSYWMNWVKQRPGQGLEWIGQIWPGDGDTNYNGKFKGKATLTADESSSTAYMQLSSLASEDSAVYFCARRETTTVGRYYYAMDYWGQGTTVTVSSASTKGPSVFPLAPSSKSTSGGTAALGCLVKDYFPEPVTVSWNSGALTSGVHTFPAVLQSSGLYSLSSVVTVPSSSLGTQTYICNVNHKPSNTKVDKKVEPKSCGGGGSGGGGSGGGGSGGGGSEVQLVESGGGLVQPGGSLRLSCAASGFTFSTYAMNWVRQAPGKGLEWVGRIRSKYNNYATYYADSVKGRFTISRDDSKNSLYLQMNSLKTEDTAVYYCVRHGNFGNSYVSWFAYWGQGTLVTVSSGGGGSDKTHTCPPCPAPEAAGPSVFLFPPKPKDTLMISRTPEVTCVVVDVSHEDPEVKFNWYVDGVEVHNAKTKPREEQYNSTYRVVSVLTVLHQDWLNGKEYKCKVSNKALPAPIEKTISKAKGQPREPQVYTLPPSREEMTKNQVSLWCLVKGFYPSDIAVEWESNGQPENNYKTTPPVLDSDGSFFLYSKLTVDKSRWQQGNVFSCSVMHEALHNHYTQKSLSLSPGGGGGSGGGGSGGGGSGGGGSQVQLVQSGAEVKKPGASVKVSCKASGYTFAGFEMHWVRQAPGQGLEWMGAIDPKTGGTDYNQKFKDRVTMTRDTSISTAYMELSRLRSDDTAVYYCARDLGYFDVWGQGTLVTVSS
chain 2: QVQLQQSGAELVRPGSSVKISCKASGYAFSSYWMNWVKQRPGQGLEWIGQIWPGDGDTNYNGKFKGKATLTADESSSTAYMQLSSLASEDSAVYFCARRETTTVGRYYYAMDYWGQGTTVTVSSASTKGPSVFPLAPSSKSTSGGTAALGCLVKDYFPEPVTVSWNSGALTSGVHTFPAVLQSSGLYSLSSVVTVPSSSLGTQTYICNVNHKPSNTKVDKKVEPKSCGGGGSGGGGSGGGGSGGGGSQAVVTQEPSLTVSPGGTVTLTCRSSTGAVTTSNYANWVQQKPGQAPRGLIGGTNKRAPWTPARFSGSLLGGKAALTITGAQAEDEADYYCALWYSNLWVFGGGTKLTVLGGGGSDKTHTCPPCPAPEAAGPSVFLFPPKPKDTLMISRTPEVTCVVVDVSHEDPEVKFNWYVDGVEVHNAKTKPREEQYNSTYRVVSVLTVLHQDWLNGKEYKCKVSNKALPAPIEKTISKAKGQPREPQVYTLPPSREEMTKNQVSLSCAVKGFYPSDIAVEWESNGQPENNYKTTPPVLDSDGSFFLVSKLTVDKSRWQQGNVFSCSVMHEALHNHYTQKSLSLSPGGGGGSGGGGSGGGGSGGGGSDIQMTQSPSSLSASVGDRVTITCRASQDIRSNLNWYQQKPGGAVKLLIYYTSRLHSGVPSRFSGSGSGTDYTLTISSLQPEDFATYFCQQSEKLPRTFGGGTKVEIR
light: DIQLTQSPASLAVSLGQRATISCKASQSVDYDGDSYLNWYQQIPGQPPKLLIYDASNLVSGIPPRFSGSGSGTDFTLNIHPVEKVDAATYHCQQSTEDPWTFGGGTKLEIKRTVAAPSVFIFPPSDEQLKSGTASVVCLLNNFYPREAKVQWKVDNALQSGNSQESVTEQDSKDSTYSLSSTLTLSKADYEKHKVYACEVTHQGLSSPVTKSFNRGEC
notes: as for B2
B4: Ly2278 (bispecific antibody)
chain 1: QVQLQQSGAELVRPGSSVKISCKASGYAFSSYWMNWVKQRPGQGLEWIGQIWPGDGDTNYNGKFKGKATLTADESSSTAYMQLSSLASEDSAVYFCARRETTTVGRYYYAMDYWGQGTTVTVSSASTKGPSVFPLAPSSKSTSGGTAALGCLVKDYFPEPVTVSWNSGALTSGVHTFPAVLQSSGLYSLSSVVTVPSSSLGTQTYICNVNHKPSNTKVDKKVEPKSCGGGGSGGGGSGGGGSGGGGSEVQLVESGGGLVQPGGSLRLSCAASGFTFSTYAMNWVRQAPGKGLEWVGRIRSKYNNYATYYADSVKGRFTISRDDSKNSLYLQMNSLKTEDTAVYYCVRHGNFGNSYVSWFAYWGQGTLVTVSSGGGGSDKTHTCPPCPAPEAAGPSVFLFPPKPKDTLMISRTPEVTCVVVDVSHEDPEVKFNWYVDGVEVHNAKTKPREEQYNSTYRVVSVLTVLHQDWLNGKEYKCKVSNKALPAPIEKTISKAKGQPREPQVYTLPPSREEMTKNQVSLWCLVKGFYPSDIAVEWESNGQPENNYKTTPPVLDSDGSFFLYSKLTVDKSRWQQGNVFSCSVMHEALHNHYTQKSLSLSPG
chain 2: QVQLQQSGAELVRPGSSVKISCKASGYAFSSYWMNWVKQRPGQGLEWIGQIWPGDGDTNYNGKFKGKATLTADESSSTAYMQLSSLASEDSAVYFCARRETTTVGRYYYAMDYWGQGTTVTVSSASTKGPSVFPLAPSSKSTSGGTAALGCLVKDYFPEPVTVSWNSGALTSGVHTFPAVLQSSGLYSLSSVVTVPSSSLGTQTYICNVNHKPSNTKVDKKVEPKSCGGGGSGGGGSGGGGSGGGGSQAVVTQEPSLTVSPGGTVTLTCRSSTGAVTTSNYANWVQQKPGQAPRGLIGGTNKRAPWTPARFSGSLLGGKAALTITGAQAEDEADYYCALWYSNLWVFGGGTKLTVLGGGGSDKTHTCPPCPAPEAAGPSVFLFPPKPKDTLMISRTPEVTCVVVDVSHEDPEVKFNWYVDGVEVHNAKTKPREEQYNSTYRVVSVLTVLHQDWLNGKEYKCKVSNKALPAPIEKTISKAKGQPREPQVYTLPPSREEMTKNQVSLSCAVKGFYPSDIAVEWESNGQPENNYKTTPPVLDSDGSFFLVSKLTVDKSRWQQGNVFSCSVMHEALHNRFTQKSLSLSPG
light: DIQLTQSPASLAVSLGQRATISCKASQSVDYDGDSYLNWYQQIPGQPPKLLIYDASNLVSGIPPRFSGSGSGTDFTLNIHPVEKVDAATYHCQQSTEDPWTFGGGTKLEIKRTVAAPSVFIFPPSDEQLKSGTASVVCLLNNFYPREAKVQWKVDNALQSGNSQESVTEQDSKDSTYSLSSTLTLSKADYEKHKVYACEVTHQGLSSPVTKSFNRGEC
notes: Bispecific CD19 (two Fabs) / CD3 (central Fv)

Assays:
CD137 = target: T2, CD137 (UniProt Q07011 24-186, limits assumed); experiment: FCM or ELISA (graded summary table)
T2 construct: also called 4-1BB

CD19 = target: T1, CD19; experiment: FCM or ELISA (graded summary table)

Row | Binder | binding result (CD137) | binding result (CD19)
1 | B1 | binds | binds
2 | B2 | binds | 
3 | B3 | binds | 
4 | B4 |  | binds
